Experimental data published in patent publication US20220235138A1, “CAR-T CELLS TARGETING IL-1RAP AND THEIR USE IN ACUTE MYELOID LEUKEMIA (AML)” (ETABLISSEMENT FRANCAIS DU SANG, priority 2019, published 2022).

Key:
IL-1RAP [1] = assay: Hybridoma screening by FACS against IL-1RAP-positive and -negative cell lines; assay type: binding, human; details: compared among the 5 subclones
Excerpt: Briefly, BALB/c mice (5 weeks, Charles River) were immunized either by foot pad (n=3) or intraperitoneally (n=5) with a recombinant fusion protein consisting of the extra cellular part of IL-1RAP (NM_002182.2, NCBI) and the Fc-part of human IgG1 (R&D Systems, Lille, France). Lymph nodes or spleens cells and blood samples were harvested and cells were fused with the mouse myeloma cell line, then screened by FACS analysis Becton Dickinson)(, against IL-1RAP-positive (KU812) and -negative (Raji, KG1) cell lines.
Screening of hybridoma allowed to select 5 monoclonal antibodies subclones that discriminate IL-1RAP positive (KU812 or KG-1 respectively AML or Phi^+p^210 CML) from negative cell lines (Tom-1, NALM-20, Jurkat or Raji, respectively Phi+^p190 B-ALL, Phi^−B-ALL, T-ALL or Burkitt's lymphoma).
Molecular characterization was performed by Sanger sequencing of cloned PCR products amplification obtained with degenerated primers specific of the FR1 and constant regions of the heavy and light chains according to the protocol of Wang. Z. et al (J. Immunol. Methods, 2000; 233, pages 167-77). […] The monoclonal antibody subclone (#E3C3) was chosen, since it gave the highest relative fluorescence intensity (RFI) by cytometry.

[2] = system: healthy hematopoietic cells (HSCs, monocytes); assay: IL-1RAP cell surface staining of healthy donor peripheral blood and bone marrow cells; assay type: binding
Procedure: (A) IL-1RAP cell surface expression on peripheral blood (left) or bone marrow (right) cells from healthy donors (n=5). SSC-A/CD45+ allowed discrimination of subpopulations as lymphocytes (SSC-A low), monocytes (CD33+), granulocytes (SSC-A high), or HSCs (CD33−/CD34+). RFI was calculated from isotype staining and provided in each window. (B) Representative (1 of 3) IL-1RAP staining of whole human cord blood cells. IL-1RAP staining is provided for whole CD34+, CD34+/CD38−, and CD34+/CD38+ HSC cord blood subpopulations. (C) IL-1RAP-positive cells among CD34+ cells in cord blood (CB, n=5) or bone marrow (BM) from healthy donors (n=5) compared to CD34+ cells from the BM (n=10) or peripheral blood (PB, n=10) from CML patients. […] Percentages were calculated using absolute cell number determined using Trucount tubes based on 5000 fluorescent-bead cytometry acquisition. (F) Left, Gating strategy and analysis for absolute count of CID AP1903-induced cell death. […] The quantification was performed after acquiring 5000 fluorescent beads. Killing efficiency was normalized to control cells (untreated cells). Cell killing was calculated as follows: % Dead cells=[1−(absolute number of viable cells in AP1903-treated cells/absolute number of viable cells in untreated cells)]×100. (D) Absolute percentage of mortality. 24 h or 48 h C0 or IL-1RAP CAR (gated on CD3+/CD19+) T cell CID exposure. […]

[3] = system: HMEC-1 endothelial cell line; assay: Flow cytometry staining of HMEC-1 dermal endothelial cell line; assay type: binding, human; details: microvascular HMEC-1 endothelial cell line
Excerpt: FIG. 13: (A) Tissue microarray. Representative #A3C3 staining of an US Food and Drug Administration standard frozen tissue array, including 90 tissue cores (30 organs) of 3 individual donors per organ (US Biomax, Rockville, Md., USA). Immunostaining was detected using the UltraView Universal DAB Detection Kit (Ventana, USA). Images were acquired and analyzed with NDP.view 2.0 software. […] (Scale bars, 100 μm.) High IL-1RAP (KU812) or negative (Raji)-expressing cell lines were respectively used as positive or negative controls. (B) IL-1RAP R&D (red) or #A3C3 (blue) staining of HMEC-1 dermal endothelial cell line. Isotype IgG1 (gray) is depicted as overlay. RFI is provided for both staining.
In order to predict off-target toxicity, we used the #A3C3 mAb to investigate IL-1RAP expression using a tissue macroarray (TMA) of 30 normal human tissues.

IL-1RAP [4] = assay: Western blotting and cell surface staining of AML cell lines; assay type: binding, human
Excerpt: Whole cellular lysates of different AML or CML (positive control) hematopoietic cell lines were separated by polyacrylamide gel electrophoresis and electrotransferred onto polyvinylidene difluoride membranes. Membranes were probed overnight with primary IL-1RAP #A3C3 (diluted at 1:20). Twenty micrograms of protein were electrophoresed on sodium dodecyl-sulfate polyacrylamide gels (SDS-PAGE), and then sonicated protein fractions were suspended in RIPA buffer supplemented with a protease inhibitor cocktail (complete Mini EDTA-free; Roche, Bale, Switzerland). Protein load in the western blot lane was evaluated with β-actin mAb staining (1:1000, clone AC15, #A5441, Sigma-Aldrich). Immunodetection staining was performed with a secondary polyclonal antibody sheep anti-mouse IgG (#515-035-062, Jackson). Enhanced chemiluminescence detection reagents allowed detection with a camera and Bio-1D software (Vilber-Lourmat, Collegien, France).
IL-1RAP cell surface staining of different hematopoietic AML cell lines was performed, using #A3C3 mAb and IL-1RAP murine mAb as staining comparison.
Relative Fluorescence Intensity (RFI) between IL-1RAP staining and isotype was calculated. IL-1RAP+ (KU812) or IL-1RAP-(Raji) cell lines were used as positive or negative controls respectively.

Sequence of IL-1RAP (Q9NPH3 21-570): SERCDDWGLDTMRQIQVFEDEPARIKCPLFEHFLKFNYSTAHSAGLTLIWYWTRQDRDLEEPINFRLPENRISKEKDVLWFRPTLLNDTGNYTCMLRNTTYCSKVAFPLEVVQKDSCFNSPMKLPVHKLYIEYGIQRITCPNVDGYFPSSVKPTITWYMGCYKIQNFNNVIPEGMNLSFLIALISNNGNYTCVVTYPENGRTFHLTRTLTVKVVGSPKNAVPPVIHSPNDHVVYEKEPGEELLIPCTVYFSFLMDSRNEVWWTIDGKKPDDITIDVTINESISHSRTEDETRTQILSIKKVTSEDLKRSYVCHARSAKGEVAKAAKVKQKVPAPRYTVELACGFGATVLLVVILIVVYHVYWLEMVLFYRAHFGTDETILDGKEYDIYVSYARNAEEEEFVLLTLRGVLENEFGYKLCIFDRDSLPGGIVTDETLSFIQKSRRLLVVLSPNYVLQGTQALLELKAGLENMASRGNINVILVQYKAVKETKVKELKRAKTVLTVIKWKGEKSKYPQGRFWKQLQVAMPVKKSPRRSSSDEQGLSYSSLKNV

B1: #A3C3: mouse anti-hIL-1RAP monoclonal antibody generated by standard hybridoma technique; VH SEQ ID No 2, VL SEQ ID No 4 (antibody, V domains shown)
VH: MGWSCIILFLVATATGVNSQVQLQQPGAELMMPGASVKVSCEASGYTFTDSWMHWVKQRPGQGLEWIGAIDPSDSYTTYNQKFTGKATLSVDESSNTAYMQLSSLTSEDSAVYYCARYYSGSNYISPFPYWGQGTLVTVSA
VL: MESQIQVFVFVFLWLSGVDGDIVMTQSHKFMSTSVGDRVTITCKASLDVSTAVAWYQQKPGQSPKLLIYSASYRYTGVPDRFTGSGSGTDFTFTISSVQAEDLAVYYCQQHYSPPFTFGSGTNLEIK
modifications: Amino acid sequence of chain H (VH) of murine scFv anti-IL-1RAP; Amino acid sequence of chain K (VL) of murine scFv anti-IL-1RAP
With B1 the “relative fluorescence intensity (RFI) by cytometry” value (IL-1RAP [1]) was “highest”, the RFI ([2]; HSCs in bone marrow from healthy donors, n=5) was < 1.2 and the RFI ([2]; monocyte subpopulation, weak staining in 2/5 peripheral blood and 3/5 bone marrow from healthy donors) was < 2. The “recognition of cell surface IL-1RAP on HMEC-1” value [3] was “not recognized” and the “staining of AML cell lines expressing IL-1RAP at the cell surface” value (IL-1RAP [4]) was “able to stain different AML cell lines”.
